Tested on: Saccharomyces cerevisiae PS128 hsf1 delta, HSF1(1-493) fusion
Test: growth estimate (transactivation domain function in HSF1 fusion, heat-shock survival) (a.u. (slope of normalised read count over time)); higher = stronger growth at 37°C, i.e. more transactivation activity
Conditions: library: design library
Outline: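 The growth estimate is the slope, from a robust linear fit over time, of read counts scaled to sample totals and starting count. These counts came from Illumina MiSeq sequencing of PCR-amplified inserts, run as six barcoded replicates of one experiment. The inserts encoded designed transactivation-domain oligos fused to yeast HSF1 (amino acids 1–493) in an hsf1-deleted strain, replica-plated on –trp 5-FOA plates and incubated at 30°C or 37°C for 0, 2, 4, 6 and 8 days.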

Row | Sequence | growth estimate
1 | DELSWIIELLEKRG | < -0.25
2 | DELSWIIELREKDG | -0.239
3 | EDLYSPLWSDVY | < -0.25
4 | TMDDVYNRLFDD | -0.242
5 | EDKDEFSLWDSML | -0.0707
6 | VADDIWEELLSEKL | 3.04
7 | TMDDVYNYLFDG | 0.0766
8 | PFPDTQDDFRKWWRSEEAQ | -0.247
9 | EFNDLLDLDFILGN | 4.09
10 | PEFPGIELQELQGLQALLQQ | < -0.25
11 | TMDDVYNYLFDK | -0.18
12 | TMGDVYNYLFDD | 0.113
13 | PEFPGIELQPLQELQALLQQ | -0.243
14 | EANDLLDLDFILSN | 0.0838
15 | DLDESWDYIFETGE | 1.44
16 | PEFPGIELQELAELQALLQQ | 0.131
17 | QQNGEIAQKWDFN | 0.0645
18 | PFPDTKDDFLKWWRSEEAQ | < -0.25
19 | EFNDLLRLDFILSN | < -0.253
20 | EDLYAILWSDVY | -0.11
21 | PFPDTQDDFGKWWRSEEAQ | < -0.25
22 | VAPDIWEELLSEDL | 3.05
23 | TMDDVGNYLFDD | < -0.25
24 | EDDDEFSLWDSMK | < -0.25

Row | Sequence | growth estimate
25 | DFDLDMGGDFDLDMLG | 8.13
26 | DLDESWDYIFETAE | 1.08
27 | DLDESWDYIFETTK | -0.0269
28 | DFDLDMLGDFDLDKLG | -0.158
29 | KFNDLLDLDFILSN | 0.326
30 | VADDIAEELLSEDL | -0.224
31 | DLDEKWDYIFETTE | < -0.25
32 | PFPDTQDDFLKAWRSEEAQ | < -0.25
33 | DERSWIIELLEKDG | < -0.25
34 | DELSPIIELLEKDG | -0.237
35 | DELPWIIELLEKDG | -0.193
36 | EDDDEFSKWDSML | -0.228
37 | DFDLRMLGDFDLDMLG | 6.25
38 | LFDYDFLFGNKFA | -0.246
39 | PEFPGIELQELQELAALLQQ | 0.178
40 | EFNGLLDLDFILSN | -0.173
41 | EFNDLLKLDFILSN | -0.0935
42 | MLSSHGFSVKTSALLDLFSP | -0.0119
43 | MLSSHGASVDTSALLDLFSP | -0.0827
44 | DELSWIIELLEKDG | 1.7
45 | PEFPGKELQELQELQALLQQ | < -0.25
46 | LKDYDFLFGNDFA | -0.0701
47 | MLSSHGFSVDTSALLDKFSP | -0.227
48 | DFDLDMLGDPDLDMLG | 10.1

Row | Sequence | growth estimate
49 | EFNDLLDLDKILSN | -0.21
50 | QQNREIAQLWDFN | < -0.25
51 | VADDIWEELLPEDL | -0.022
52 | PEFPGIELQELQELQALLKQ | 0.0452
53 | TMDDVYKYLFDD | 0.872
54 | QQNGEIAQLWDFA | < -0.25
55 | EFNRLLDLDFILSN | < -0.25
56 | PEFPGIELQELQELQALLQK | -0.125
57 | EDLYPILWSDVY | < -0.25
58 | EDDDEKSLWDSML | -0.0523
59 | QQNGRIAQLWDFN | -0.248
60 | MLSSKGFSVDTSALLDLFSP | -0.115
61 | EDLYSILWGDVY | -0.152
62 | ERLYSILWSDVY | < -0.25
63 | DLPESWDYIFETTE | -0.108
64 | QQNGEIAPLWDFN | < -0.25
65 | PEFPGIELQELQELQALKQQ | -0.232
66 | DFDLDMLGDFDLDMLG | 7.72
67 | MLSSHGFSVDTSALLDLFSP | 0.0347
68 | PFPDTQDDFLKKWRSEEAQ | -0.167
69 | MLSSHGFKVDTSALLDLFSP | < -0.25
70 | PFPDTQDDFLKWWRSEAAQ | -0.154
71 | PFPDTQDDFLKWWASEEAQ | 4.59
72 | QQNGAIAQLWDFN | -0.114

Row | Sequence | growth estimate
73 | VADDIWEELLSEPL | 5.18
74 | EFNDLLDLDAILSN | 0.353
75 | MLSSHGFSVDTSALLDLFGP | -0.17
76 | PFPDTQDDFLKWWRSPEAQ | -0.176
77 | DPDESWDYIFETTE | 0.0829
78 | EDADEFSLWDSML | 0.354
79 | PFADTQDDFLKWWRSEEAQ | 0.444
80 | MLSSHGFSVDTSALLDLFPP | -0.106
81 | VADDIWEALLSEDL | 8.8
82 | DLDESWDYIFETTG | 2.74
83 | DELSWIIELLEGDG | 2.77
84 | DFDLDRLGDFDLDMLG | 4.07
85 | DFDLDMLGDFDLKMLG | -0.116
86 | DFDLDALGDFDLDMLG | 5.01
87 | DLAESWDYIFETTE | 0.371
88 | DFDLAMLGDFDLDMLG | 9.96
89 | TMDAVYNYLFDD | 0.158
90 | TMDDGYNYLFDD | < -0.25
91 | DELAWIIELLEKDG | 0.883
92 | EDDDEFSLWDSPL | 0.011
93 | DKDESWDYIFETTE | -0.235
94 | MLPSHGFSVDTSALLDLFSP | -0.0639
